# Results as given in the Immune Epitope Database (IEDB).
# pKd: −log10 of the molar value.
# Columns and labels:
# Experiment in all cases: IEDB peptide-MHC binding, purified MHC/competitive/radioactivity; filed as Kd, often an IC50 or EC50 that approximates it; ≥ and ≤ were set here for values at or beyond the usual limits of such assays
# HLA-A*31:01 = target: HLA-A*31:01
# HLA-A*11:01 = target: HLA-A*11:01
# HLA-A*03:01 = target: HLA-A*03:01
# HLA-A*68:01 = target: HLA-A*68:01
# HLA-A*33:01 = target: HLA-A*33:01
# [1] = source organism: Dengue virus 4 Philippines/H241/1956
# [2] = source organism: Dengue virus 1 Brazil/97-11/1997
# [3] = source organism: Vaccinia virus WR
# [4] = source organism: SARS coronavirus Tor2
# [5] = source organism: Lassa virus Josiah
# [6] = source organism: Dengue virus 3 Martinique/1243/1999
# [7] = source organism: Dengue virus 3 Sri Lanka/1266/2000
# [8] = source organism: Dengue virus 2 Jamaica/1409/1983
# [9] = source organism: Mammarenavirus juninense
Sequence,pKd (HLA-A*03:01; [3]),pKd (HLA-A*68:01; [3]),pKd (HLA-A*11:01; [3]),pKd (HLA-A*31:01; [3]),pKd (HLA-A*33:01; [3]),also measured
AAQRRGRIGR,–,–,–,–,–,pKd (HLA-A*31:01; [1]): 8.67
AIKVLRGFKK,–,–,–,–,–,pKd (HLA-A*11:01; [2]): 6.09
ALFMYYAKR,7.91,6.03,7.18,9.35,7.49,–
ASTISWMMK,7.50,6.23,9.46,5.74,≤ 4.41,–
ATSTRHPSK,–,–,–,–,–,pKd (HLA-A*03:01; [4]): 9.22; pKd (HLA-A*68:01; [4]): 6.56; pKd (HLA-A*11:01; [4]): 8.01; pKd (HLA-A*31:01; [4]): 6.21; pKd (HLA-A*33:01; [4]): ≤ 4.11
ATVVIGTSK,–,–,–,–,–,pKd (HLA-A*68:01; [4]): 7.00; pKd (HLA-A*31:01; [4]): 5.88; pKd (HLA-A*33:01; [4]): ≤ 4.11
CIFAFIDFSK,7.74,7.34,8.04,6.87,7.19,–
CSKHMDARY,4.72,4.73,5.00,≤ 4.34,≤ 4.11,–
CTSQILLMR,–,–,–,–,–,pKd (HLA-A*68:01; [2]): 7.78
DAKNDDWKKY,≤ 4.15,≤ 4.15,≤ 4.16,≤ 4.15,≤ 4.15,–
DIDILQTNSR,7.20,6.08,≤ 4.56,6.15,6.50,–
DQYKDLCHMH,–,–,–,–,–,pKd (HLA-A*03:01; [5]): ≤ 4.15; pKd (HLA-A*68:01; [5]): ≤ 4.15; pKd (HLA-A*11:01; [5]): ≤ 4.16; pKd (HLA-A*31:01; [5]): ≤ 4.15; pKd (HLA-A*33:01; [5]): ≤ 4.15
DSALTLHWFR,–,–,–,–,–,pKd (HLA-A*68:01; [1]): 7.88; pKd (HLA-A*33:01; [1]): 8.49
DTEDIVSDSK,5.12,6.70,5.78,4.80,5.50,–
DVDTSASEIK,5.35,6.87,5.58,≤ 4.57,4.73,–
DVISRRDQR,–,–,–,–,–,pKd (HLA-A*68:01; [2]): 7.18; pKd (HLA-A*33:01; [2]): 7.17
EATQLATLR,–,–,–,–,–,pKd (HLA-A*68:01; [6]): 7.80; pKd (HLA-A*33:01; [6]): 7.02
EITAEWLWR,–,–,–,–,–,pKd (HLA-A*68:01; [7]): 6.94; pKd (HLA-A*33:01; [7]): 7.94
ELGFNYPEY,≤ 4.40,5.05,≤ 4.18,≤ 4.11,≤ 4.11,–
ELYDTSPTKR,6.12,8.82,4.98,5.73,6.85,–
EMGANFRADR,–,–,–,–,–,pKd (HLA-A*31:01; [2]): ≤ 4.15
ENKAWLVHR,–,–,–,–,–,pKd (HLA-A*33:01; source organism: Dengue virus 2 16681-PDK53): 8.15
ESKAKQLCY,≤ 4.11,4.80,≤ 4.11,≤ 4.11,≤ 4.11,–

Sequence,pKd (HLA-A*03:01; [3]),pKd (HLA-A*68:01; [3]),pKd (HLA-A*11:01; [3]),pKd (HLA-A*31:01; [3]),pKd (HLA-A*33:01; [3]),also measured
FAEESYTYYY,≤ 4.58,6.27,6.04,≤ 4.15,≤ 4.15,–
FFLMVLLIPE,–,–,–,–,–,pKd (HLA-A*33:01; [2]): 6.68
FLAVFQSATK,–,–,–,–,–,pKd (HLA-A*03:01; [4]): 7.46; pKd (HLA-A*68:01; [4]): 8.06; pKd (HLA-A*11:01; [4]): 5.79; pKd (HLA-A*31:01; [4]): 4.97; pKd (HLA-A*33:01; [4]): ≤ 4.65
FLRSIAMLK,8.69,6.97,6.67,6.82,6.21,–
FTDPASIAAR,–,–,–,–,–,pKd (HLA-A*68:01; [8]): 7.59; pKd (HLA-A*33:01; [8]): 6.90
FVCRRTFVDR,–,–,–,–,–,pKd (HLA-A*31:01; [2]): ≤ 4.15; pKd (HLA-A*33:01; [2]): 7.19
FVNEKYCIIK,≤ 4.31,6.56,6.65,5.21,5.41,–
GFKNGSRHSH,–,–,–,–,–,pKd (HLA-A*03:01; [9]): 4.84; pKd (HLA-A*68:01; [9]): 5.53; pKd (HLA-A*11:01; [9]): ≤ 4.37; pKd (HLA-A*31:01; [9]): 6.05
GLLDSIKMIY,7.34,6.09,5.47,5.81,5.54,–
GMDYEEYKSK,7.53,≤ 4.68,6.60,5.77,≤ 4.44,–
GSLITCAKFK,–,–,–,–,–,pKd (HLA-A*11:01; source organism: Dengue virus 1 Nauru/West Pac/1974): 6.61
GTVMDIISRK,–,–,–,–,–,pKd (HLA-A*11:01; [6]): 7.32
GVLARWGTFK,–,–,–,–,–,pKd (HLA-A*03:01; [6]): 8.28; pKd (HLA-A*11:01; [6]): 7.13
GVTSSGAIYK,6.74,7.09,7.34,5.87,≤ 5.00,–
HLKCRLRMDK,–,–,–,–,–,pKd (HLA-A*03:01; [8]): 6.92
HYDQENPYR,–,–,–,–,–,pKd (HLA-A*33:01; [1]): 5.10
IFNEDTSYY,5.22,≤ 4.70,5.16,≤ 4.11,≤ 4.11,–
IFVSLVKKNK,6.44,7.25,5.73,7.16,7.26,–
IILARNEEGR,5.02,5.94,≤ 4.61,7.15,6.46,–
ILKINSVKY,6.08,5.74,4.79,5.88,4.89,–
ILKRWGTIK,–,–,–,–,–,pKd (HLA-A*03:01; [8]): 7.85
ILQLIRHGR,5.84,7.12,6.14,9.01,8.58,–
